Test results reported in the RNAGym collection of RNA variant scans (doi:10.1073/pnas.2313332121).

B1: TPR t1 (parent)
chain: GACCAAUCUGCCCUCAGAGCUCGAGAACAUCUUCGGAUGCAGAGGAGGCAGGCUUCGGUGGCGCGAUAGCGCCAACGUCCUCAACCUCCAAUGCAUCCCACCACAUGAUGAUGCCUGAAGAGCCUUGGUUUUUUG

Variants of: B1
Assay: polymerase ribozyme fitness, log enrichment relative to wild type (log ratio); higher = more active; in vitro selection for triplet polymerase activity
Outline: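 To select mutant libraries of each subunit of a heterodimeric triplet polymerase ribozyme, built by PCR and transcribed, each was annealed with a biotinylated primer, partner subunit and triplets, then incubated frozen at −7 °C. Extended constructs were gel-excised, captured on streptavidin beads and amplified by RT-PCR, in one round carried out in triplicate. Illumina sequencing of input and output libraries kept genotypes with ≥10 input reads and ≥1 read per output. Fitness is the base-2 logarithm of genotype enrichment relative to wild-type enrichment, from inverse-variance-weighted replicate averages.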

Variant | polymerase ribozyme fitness (log ratio)
C85A U87G G120U | -0.802
C85A G117C | -5.07
C86A A95C | -2.08
U81G C82A A84C G120U | -1.07
C82G A91C | -2.29
A83G C85A | -2.68
U81C A90C U112G | -2.24
A83G G120U | -0.6
A84U C124U | 0.806
A83C G93A G117U | -2.52
A84U U132C | -0.244
C82A A84C G110C | -4.7
A84G G113U | -2.8
C85U C86A C94G G117C | -6.16
C85U G93A G120U | -0.509
C82A G93C | -1.06
C82A G113U C114U | -1.55
C85G | -1.74
C85U | -0.966
C85A | -1.96
U81A A90G | -0.0144
C85A C101G | -3.91
A84C C88G | -0.958
C85U U92C G127U G128A | -6.04

Variant | polymerase ribozyme fitness (log ratio)
C86A C124G G128A | 0.914
C82G A95U A105G | -3.5
C86G U112C | -1.94
C82A C88A U96A | -1.57
C86A U87A | -2.7
U81A A91C C97A A105G C123G | -8.06
U81C C115G | -2.02
C85G C102U G113U G117A G120C | -5.52
A84G A91U | -3.76
C86G A90C U96C U112A C124A | -1.78
C85U A121G | 1.61
A83C C104A C115U | -4.27
C82G U125A | -0.86
C86U | -0.178
C86A | -0.461
C86G | -0.82
U81A C88A C101U | -1.46
A83C A91G A111G | -1.85
A83G G120U G122U | -0.467
U81A U92A A118G | -5.64
C85U G113A G120U | -2.7
C82U C97G | -4.81
C82U C97A | -4.95
C82U A111G | -0.268

Variant | polymerase ribozyme fitness (log ratio)
C82G C102A U112A G120C U125G | -4.33
C82G C86A C94G | -3.45
C85U U109A A121G | -4.29
C80U U129G U133A | -2.36
C82U C85A C86U C97A C124G | -5.65
C80U U131G | -0.642
U81C G128U | -2.54
C86A G107U A121U U132C | -3.32
C82U A83G C101U | -0.587
A84U G93C | -1.39
U81G C86U G120U U133A | -4.01
C82G A91C C115G | -2.49
A83C G110C G120C | -5.9
C85U U116A G120C | -1.14
C82A C85A G120U | -0.479
A83G C114A | -3.07
U81C C88A C123G G135U | 1.08
C86U C104U | -0.296
A83C G128C | -2.09
C86U A111U | -2.11
C82A | -0.485
C82U | -0.201
C82G | -0.684
A83C A119G | -0.249

Variant | polymerase ribozyme fitness (log ratio)
C82U G128A | -2.32
C82U G128C | -2.07
C85G U106C | -0.939
C85G C88A C101U C124U | -0.871
C82A G93A A100C C123U U125A | -1
A83C G113C | -2.78
A83C G113A | -1.32
C85A A111U | -4.18
A83U C98A C123A U125A | -4.08
A84C U130A | -0.44
U87A | 0.0155
U81G C82A | -2
C86U U96A U106G | -4.25
C86G G113U | -3.98
C86G G113C | -2.62
C85A G128U | -4.02
C82A A103U | -6.11
C82A U116C C123A | -2.84
C86U G93A | -0.143
A83U A100C C114U | -3.1
C82G C88A | -1.21
C82U U125A | -0.249
A83U A95G C104G A105C C115A G117U | -5.76
U81A G110U | -2.6

Variant | polymerase ribozyme fitness (log ratio)
A83G A84C | -1.03
C85G C88U C123A | -0.368
A83C U106A C123U | 1.46
C82G U106A | -0.594
C82G G128A U133G | -2.64
C82A C102A C114U | -4.27
U81A C86U | -1.8
U81A C86A | -2.24
C82G C98G U109A C123G | -7.59
A83C A111U U134G | -2.14
A83C U112G | -1.81
U81A U87C A121G | 1.6
U81A A111U | -5.01
A84G C88U C124U | 0.679
C85A G113U | -3.47
C85A C94U U112C | 0.116
C86A G110A | -1.86
C80U U96C | -0.313
C82G A84U | 0.00652
C86A A103U | -4.95
C82U C85A A121U | 0.305
C86G U92C | -2.6
C86A C104A G120C U130A | -1.56
C86A G117U | -4.28

Variant | polymerase ribozyme fitness (log ratio)
A84U G110C | -4.16
U81G U87C | -2.82
U81A A83U C115A | -1.27
A83C A84C G128A U131A | -2.01
C82U C86U G110A U133C | -0.604
A83G A105G C115U | -2.83
C85A C99U G113A | -4.82
C85G G120A | -1.01
C85U U87A C89U | -2.94
C86A G113C | -3.02
C82A A91C | -1.72
U81C C115A G128C U131G | -4.42
C85G C123U | -0.244
C82G C114A | -3.29
A83U C88U C101A | -1.52
A84U C102U | -2
A83C C101U | 0.114
A83G G127C | -1.88
A83U C85U C123G C124G | 1.28
C86A C99U C101U A121G G122U | -1.38
A83C U96G U106A A121C | 1.64
C82A A105U | -2.27
A84U C114U U126G | -6.08
C85U C86G A118C | -3.84

Variant | polymerase ribozyme fitness (log ratio)
C82A G110C | -3.97
U81C C82G G113C C115G A118G | -7.41
C86U U112G | 0.18
C86U U112C | 0.942
C82U G110A C115G | -5.29
U81A A95C A121C | 0.395
C82G G107A | -6.96
A83C C124G | 0.483
A83C C94A | -0.753
C85A C114G | -4.62
A84G G120A U130G | -0.15
U81A C104U | -0.577
C86A A100C | -1.66
C86U G117C | -3.53
A84C G93A C101U | -1.17
A84U C94G | -1.24
U81A A95U C102G A103U G110C U125G | -6.02
A83U A100U C123U U125G | 0.186
A84U U112A | 0.956
U81G U106G C124U | -5.53
A84G G120A C123A | -0.958
C82A C99U G122A | -3.36
C85A U106A | -2.53
